Results taken from PMC9482650, “Quantitative fragmentomics allow affinity mapping of interactomes” (Nature Communications, 2022).

T1: DLG3_1, Q92796
T1 sequence (Q92796 125-227, limits assumed, looked up): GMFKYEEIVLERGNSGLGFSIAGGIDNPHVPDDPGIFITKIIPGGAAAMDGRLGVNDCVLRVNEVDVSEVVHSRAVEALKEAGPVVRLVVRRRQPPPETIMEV

T2: NHERF3_1, Q5T2W1
T2 sequence (Q5T2W1 4-100, limits assumed, looked up): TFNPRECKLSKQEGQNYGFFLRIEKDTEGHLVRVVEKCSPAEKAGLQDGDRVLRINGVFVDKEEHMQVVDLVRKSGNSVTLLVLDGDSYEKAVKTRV

T3: ARHGAP21, Q5T5U3
T3 sequence (Q5T5U3 45-169, limits assumed, looked up): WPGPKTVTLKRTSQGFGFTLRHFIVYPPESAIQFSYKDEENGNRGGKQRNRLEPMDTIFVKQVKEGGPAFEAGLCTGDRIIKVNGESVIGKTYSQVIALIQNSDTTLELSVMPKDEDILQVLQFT

T4: NHERF3_4, Q5T2W1
T4 sequence (Q5T2W1 373-468, limits assumed, looked up): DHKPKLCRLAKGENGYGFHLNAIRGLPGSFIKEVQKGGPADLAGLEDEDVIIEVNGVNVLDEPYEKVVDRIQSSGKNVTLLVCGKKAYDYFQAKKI

T5: APBA2_2, Q99767
T5 sequence (Q99767 654-744, limits assumed, looked up): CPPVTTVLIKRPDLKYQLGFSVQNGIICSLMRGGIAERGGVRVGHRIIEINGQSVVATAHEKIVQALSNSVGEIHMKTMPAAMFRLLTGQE

T6: SIPA1L2, Q9P2F8
T6 sequence (Q9P2F8 945-1036, limits assumed, looked up): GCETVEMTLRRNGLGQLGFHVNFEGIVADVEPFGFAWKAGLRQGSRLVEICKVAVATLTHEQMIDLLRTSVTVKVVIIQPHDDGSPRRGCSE

T7: DFNB31_2, Q9P202
T7 sequence (Q9P202 274-371, limits assumed, looked up): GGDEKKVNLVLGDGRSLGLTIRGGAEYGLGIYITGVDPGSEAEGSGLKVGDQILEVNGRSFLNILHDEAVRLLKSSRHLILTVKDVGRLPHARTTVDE

T8: PTPN13_1, Q12923
T8 sequence (Q12923 1088-1188, limits assumed, looked up): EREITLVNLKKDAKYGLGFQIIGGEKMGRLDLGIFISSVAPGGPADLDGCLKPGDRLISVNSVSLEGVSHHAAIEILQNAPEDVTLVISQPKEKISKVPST

T9: LRRC7, Q96NW7
T9 sequence (Q96NW7 1440-1537, limits assumed, looked up): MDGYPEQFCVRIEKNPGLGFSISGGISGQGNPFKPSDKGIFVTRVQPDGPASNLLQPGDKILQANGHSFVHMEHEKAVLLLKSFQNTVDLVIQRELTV

T10: APBA2_1, Q99767
T10 sequence (Q99767 563-664, limits assumed, looked up): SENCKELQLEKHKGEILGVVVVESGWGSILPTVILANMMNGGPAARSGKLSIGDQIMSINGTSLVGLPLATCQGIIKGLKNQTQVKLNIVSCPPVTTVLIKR

T11: GRIP1_7, Q9Y3R0
T11 sequence (Q9Y3R0 999-1096, limits assumed, looked up): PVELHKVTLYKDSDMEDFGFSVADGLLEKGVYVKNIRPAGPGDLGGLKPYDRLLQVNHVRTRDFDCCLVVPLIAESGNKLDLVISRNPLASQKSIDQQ

T12: NHERF3_3, Q5T2W1
T12 sequence (Q5T2W1 238-333, limits assumed, looked up): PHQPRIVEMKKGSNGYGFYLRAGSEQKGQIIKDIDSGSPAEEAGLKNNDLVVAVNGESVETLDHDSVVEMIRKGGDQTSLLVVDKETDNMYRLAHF

B1: GYPC, P04921 (peptide)
chain: GDSSRKEYFI
B2: MCC, P23508 (peptide)
chain: SRPHTNETSL
B3: EXOC4, Q96A65 (peptide)
chain: ATKDKKITTV
B4: FKBP4, Q02790 (peptide)
chain: GSQSQVETEA

Legend:
Test in all cases: holdup assay
Design in all cases: key: below the threshold = too weak to quantify, mostly under pKd 3.1 to 4
Details in all cases: plain residues with an end cap or a label only (N-terminal biotin on a linker: ado-ado)
IL16_4, Q14005 = molecular target: IL16_4, Q14005
DLG3_1, Q92796 = molecular target: T1, DLG3_1, Q92796
NHERF3_1, Q5T2W1 = molecular target: T2, NHERF3_1, Q5T2W1
HTRA2, O43464 = molecular target: HTRA2, O43464
ARHGAP21, Q5T5U3 = molecular target: T3, ARHGAP21, Q5T5U3
NHERF3_4, Q5T2W1 = molecular target: T4, NHERF3_4, Q5T2W1
MAGI2_3, Q86UL8 = molecular target: MAGI2_3, Q86UL8
APBA2_2, Q99767 = molecular target: T5, APBA2_2, Q99767
SIPA1L2, Q9P2F8 = molecular target: T6, SIPA1L2, Q9P2F8
FRMPD4, Q14CM0 = molecular target: FRMPD4, Q14CM0
MAGI2_2, Q86UL8 = molecular target: MAGI2_2, Q86UL8
FRMPD2_1, Q68DX3 = molecular target: FRMPD2_1, Q68DX3
Inadl_5, Q8NI35 = molecular target: Inadl_5, Q8NI35
DFNB31_2, Q9P202 = molecular target: T7, DFNB31_2, Q9P202
PTPN13_1, Q12923 = molecular target: T8, PTPN13_1, Q12923
DLG2_2, Q15700 = molecular target: DLG2_2, Q15700
Inadl_2, Q8NI35 = molecular target: Inadl_2, Q8NI35
DLG1_2, Q12959 = molecular target: DLG1_2, Q12959
LRRC7, Q96NW7 = molecular target: T9, LRRC7, Q96NW7
GIPC2, Q8TF65 = molecular target: GIPC2, Q8TF65
APBA2_1, Q99767 = molecular target: T10, APBA2_1, Q99767
GRIP1_7, Q9Y3R0 = molecular target: T11, GRIP1_7, Q9Y3R0
GRIP2_7, Q9C0E4 = molecular target: GRIP2_7, Q9C0E4
GRID2IP_1, A4D2P6 = molecular target: GRID2IP_1, A4D2P6
NHERF3_3, Q5T2W1 = molecular target: T12, NHERF3_3, Q5T2W1
DLG1_3, Q12959 = molecular target: DLG1_3, Q12959
Chain of DLG1_3, Q12959 (Q12959 457-571): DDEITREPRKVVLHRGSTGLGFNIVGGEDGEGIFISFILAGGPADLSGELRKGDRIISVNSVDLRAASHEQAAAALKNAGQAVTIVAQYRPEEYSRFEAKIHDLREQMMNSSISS

Chain of FRMPD2_1, Q68DX3 (Q68DX3 770-861): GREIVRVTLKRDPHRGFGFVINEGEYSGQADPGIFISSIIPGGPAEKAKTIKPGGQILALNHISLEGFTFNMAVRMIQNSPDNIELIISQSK
Chain of GIPC2, Q8TF65 (Q8TF65 112-203): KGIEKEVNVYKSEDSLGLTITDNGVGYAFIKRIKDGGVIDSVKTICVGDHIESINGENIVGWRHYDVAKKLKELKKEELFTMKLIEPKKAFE
Chain of MAGI2_2, Q86UL8 (Q86UL8 410-522): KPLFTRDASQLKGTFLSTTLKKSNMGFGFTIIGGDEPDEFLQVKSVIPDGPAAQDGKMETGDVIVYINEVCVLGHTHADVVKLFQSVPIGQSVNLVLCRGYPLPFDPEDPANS
Chain of DLG1_2, Q12959 (Q12959 314-412): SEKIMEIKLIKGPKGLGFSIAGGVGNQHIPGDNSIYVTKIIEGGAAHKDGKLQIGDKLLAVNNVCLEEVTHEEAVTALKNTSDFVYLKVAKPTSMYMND
Chain of GRID2IP_1, A4D2P6 (A4D2P6 1-87): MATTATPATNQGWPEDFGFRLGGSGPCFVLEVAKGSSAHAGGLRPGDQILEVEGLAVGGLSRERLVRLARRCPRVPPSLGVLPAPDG
Chain of HTRA2, O43464 (O43464 355-458): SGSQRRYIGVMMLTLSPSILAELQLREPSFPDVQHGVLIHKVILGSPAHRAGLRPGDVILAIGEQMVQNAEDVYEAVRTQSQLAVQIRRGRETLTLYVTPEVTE
Chain of FRMPD4, Q14CM0 (Q14CM0 67-160): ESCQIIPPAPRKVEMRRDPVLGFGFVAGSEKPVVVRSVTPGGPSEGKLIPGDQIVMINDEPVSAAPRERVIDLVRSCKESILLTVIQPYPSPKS
Chain of Inadl_2, Q8NI35 (Q8NI35 238-335): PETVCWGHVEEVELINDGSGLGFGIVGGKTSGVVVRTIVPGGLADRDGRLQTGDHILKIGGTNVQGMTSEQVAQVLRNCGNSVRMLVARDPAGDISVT
Chain of Inadl_5, Q8NI35 (Q8NI35 673-780): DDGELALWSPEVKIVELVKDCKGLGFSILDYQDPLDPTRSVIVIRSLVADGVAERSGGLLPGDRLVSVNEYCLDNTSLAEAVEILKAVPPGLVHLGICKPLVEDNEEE
Chain of DLG2_2, Q15700 (Q15700 189-283): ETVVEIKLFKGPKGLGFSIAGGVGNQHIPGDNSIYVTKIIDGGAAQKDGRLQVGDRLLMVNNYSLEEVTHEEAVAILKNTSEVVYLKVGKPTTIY
Chain of MAGI2_3, Q86UL8 (Q86UL8 600-682): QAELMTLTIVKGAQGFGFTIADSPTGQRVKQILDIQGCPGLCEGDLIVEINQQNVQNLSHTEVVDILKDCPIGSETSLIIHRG
Chain of GRIP2_7, Q9C0E4 (Q9C0E4 934-1023): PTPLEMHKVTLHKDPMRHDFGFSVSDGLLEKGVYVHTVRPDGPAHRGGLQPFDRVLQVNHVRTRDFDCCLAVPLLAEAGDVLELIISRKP
Chain of IL16_4, Q14005 (Q14005 1229-1329): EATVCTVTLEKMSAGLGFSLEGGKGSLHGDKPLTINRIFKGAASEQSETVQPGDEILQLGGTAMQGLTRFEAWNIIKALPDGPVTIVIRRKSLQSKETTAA

Row | Binder | pKd (IL16_4, Q14005) | pKd (DLG3_1, Q92796) | pKd (NHERF3_1, Q5T2W1) | pKd (HTRA2, O43464) | pKd (ARHGAP21, Q5T5U3) | pKd (NHERF3_4, Q5T2W1) | pKd (MAGI2_3, Q86UL8) | pKd (APBA2_2, Q99767) | pKd (SIPA1L2, Q9P2F8) | pKd (FRMPD4, Q14CM0) | pKd (MAGI2_2, Q86UL8) | pKd (FRMPD2_1, Q68DX3) | pKd (Inadl_5, Q8NI35) | pKd (DFNB31_2, Q9P202) | pKd (PTPN13_1, Q12923) | pKd (DLG2_2, Q15700) | pKd (Inadl_2, Q8NI35) | pKd (DLG1_2, Q12959) | pKd (LRRC7, Q96NW7) | pKd (GIPC2, Q8TF65) | also measured
1 | B1 | below the threshold | below the threshold | 3.69 | 4.1 | below the threshold | below the threshold | below the threshold | below the threshold | below the threshold | below the threshold | 3.6 | below the threshold | 5.16 | below the threshold | below the threshold | below the threshold | 4.99 | 3.95 | below the threshold | below the threshold | pKd (APBA2_1, Q99767): 3.55; pKd (GRIP1_7, Q9Y3R0): 3.76; pKd (GRIP2_7, Q9C0E4): 5.33; pKd (GRID2IP_1, A4D2P6): below the threshold; pKd (NHERF3_3, Q5T2W1): below the threshold; pKd (DLG1_3, Q12959): below the threshold
2 | B2 | below the threshold | below the threshold | 5.29 | below the threshold | 4.01 | below the threshold | below the threshold | below the threshold | below the threshold | 4.49 | 3.64 | below the threshold | below the threshold | below the threshold | below the threshold | below the threshold | below the threshold | 4.19 | below the threshold | 4.08 | pKd (APBA2_1, Q99767): below the threshold; pKd (GRIP1_7, Q9Y3R0): below the threshold; pKd (GRIP2_7, Q9C0E4): below the threshold; pKd (GRID2IP_1, A4D2P6): below the threshold; pKd (NHERF3_3, Q5T2W1): below the threshold; pKd (DLG1_3, Q12959): 3.73
3 | B3 | below the threshold | 4.59 | below the threshold | below the threshold | 4.09 | below the threshold | 3.57 | below the threshold | 3.52 | 3.55 | 5.52 | 3.54 | below the threshold | below the threshold | below the threshold | 5.75 | 3.51 | 5.91 | 3.48 | below the threshold | pKd (APBA2_1, Q99767): below the threshold; pKd (GRIP1_7, Q9Y3R0): 3.53; pKd (GRIP2_7, Q9C0E4): 3.52; pKd (GRID2IP_1, A4D2P6): below the threshold; pKd (NHERF3_3, Q5T2W1): below the threshold; pKd (DLG1_3, Q12959): 4.08
4 | B4 | below the threshold | below the threshold | below the threshold | below the threshold | below the threshold | 3.73 | below the threshold | below the threshold | below the threshold | below the threshold | below the threshold | 3.53 | below the threshold | below the threshold | below the threshold | below the threshold | below the threshold | below the threshold | below the threshold | 3.79 | pKd (APBA2_1, Q99767): below the threshold; pKd (GRIP1_7, Q9Y3R0): below the threshold; pKd (GRIP2_7, Q9C0E4): below the threshold; pKd (GRID2IP_1, A4D2P6): below the threshold; pKd (NHERF3_3, Q5T2W1): below the threshold; pKd (DLG1_3, Q12959): below the threshold
